Laboratory results reported in patent US20240092926A1 (ONCORESPONSE, published 2024).
Positions count from the first letter of the chain named. Blank lines part the entries; values can stand above or below the binder they belong to.

Key:
[1] = target: T1, His-tagged recombinant human CD163 (R&D Systems, No. 1607-CD-050) (human, UniProt Q86VB7 46-1050, limits assumed); test: ELISA, His-tagged recombinant human CD163 coated; ratio of EC50 against AB101
T1 construct: Bought protein; also called recombinant CD163 protein; huCD163; not shown: His tag
Method: (§1) CD163 variant antibody binding to His-tagged recombinant human CD163 (R&D Systems, No. 1607-CD-050) protein was determined using ELISA. Recombinant protein was diluted in PBS to 5 μg/mL and added to 384-well high-binding ELISA plates (Greiner Bio-One, No. 781061) at 25 μL per well and incubated at 4° C. overnight. The plates were washed three times with PBS, using a BioTek ELx405 Select microplate washer (wash program ELISA_384_PBS_3×_wash) and then blocked with 90 μL/well of blocking buffer (2% nonfat, dry milk/PBS+0.05% Tween 20) for 1 hour at RT.
After blocking, 25 μL per well of primary antibodies were added to the plates and incubated for 1 hour at RT. […] After primary antibody binding, plates were washed three times with PBS using the EL405× (wash program ELISA_384_PBS 3×_wash). The secondary antibody was a goat anti-human IgG F(ab′)₂ HRP (Jackson Immunoresearch, No. 109-035-097). Secondary antibody was diluted to 1:2500 in 2% nonfat, dry milk/PBS, and 25 μL per well was added to the wells and incubated at RT for 1 hour. The plates were washed four times with PBS, using the EL405× (wash program ELISA_384_PBS_4× wash). […] After development, the reaction was stopped by adding 25 μL per well of 0.3 M HCl and plates were read using a SpectraMax M5e instrument at 450 nm.

[2] = target: T2, Biotin-labeled human CD163 (human, UniProt Q86VB7 42-1050, limits assumed, biotin-labeled (sites not given)); test: BLI (Octet RED96), b-huCD163 on SA biosensor, Ab at 6.25/12.5/25/50 nM
T2 construct: Biotinylated form of the human CD163 antigen, immobilised on SA biosensors for BLI; also called b-huCD163; Human CD163 Protein (biotinylated)
Method: The SA sensors were placed in the PBS buffer for 15 minutes. Different solutions were added to a 96-well plate according to the following orders, with 200 μL per well.

[3] = target: T1, His-tagged recombinant human CD163 (R&D …); test: ratio of the KD values of Table 6 (AB101 parental Ab KD over clone 4 KD); the method is not shown in the excerpt
[4] = target: T1, His-tagged recombinant human CD163 (R&D …); test: ELISA, His-tagged recombinant human CD163 coated at 5 µg/mL
Method: as §1
(§2) After blocking, 25 μL per well of primary antibodies were added to the plates and incubated for 1 hour at RT. […] After primary antibody binding, plates were washed three times with PBS using the EL405× (wash program ELISA_384_PBS 3×_wash). The secondary antibody was a goat anti-human IgG F(ab′)₂ HRP (Jackson Immunoresearch, No. 109-035-097). Secondary antibody was diluted to 1:2500 in 2% nonfat, dry milk/PBS, and 25 μL per well was added to the wells and incubated at RT for 1 hour. The plates were washed four times with PBS, using the EL405× (wash program ELISA_384_PBS_4× wash). After removal of the final wash, 25 μL/well of neat I-Step™ Ultra TMB-ELISA Substrate Solution (ThermoFisher, No. 34028) was added and the plates were incubated for 10-15 minutes at RT protected from light. After development, the reaction was stopped by adding 25 μL per well of 0.3 M HCl and plates were read using a SpectraMax M5e instrument at 450 nm.

[5] = target: T2, Biotin-labeled human CD163; test: BLI (Octet RED96), b-huCD163 on SA biosensor, one Ab concentration 50.0 nM
[6] = target: T1, His-tagged recombinant human CD163 (R&D …); test: ELISA, plate coated with His-tagged recombinant human CD163 at 5 µg/mL, detection with anti-human IgG F(ab')2-HRP, A450; log axis in nM
Method: as §1, §2

[7] = target: T2, Biotin-labeled human CD163; test: BLI (Octet RED96), b-huCD163 on SA biosensor, ratio of KD against AB101 parental Ab
[8] = target: T3, human CD163 expressed on cells (SU-DHL-1 lymphoma cells, M2c macrophages, monocytes and dendritic cells of … (human, UniProt Q86VB7 42-1114)); test: cell-based or functional assay
[9] = target: T3, human CD163 expressed on cells …; test: cell-based or functional assay; remark: listed apart in the source
[10] = target: T3, human CD163 expressed on cells …; test: flow cytometry on whole blood, intermediate monocytes, APC-labeled antibody
Method: (§3) Antibody binding to human immune cell lineage subsets was assessed by flow cytometry. Briefly, whole blood with heparin as an anticoagulant was obtained (Bloodworks Northwest). Fc-receptor blocking reagent was directly added to whole blood to a final concentration of 10% FBS, 0.5 mg/mL human IgG1 and 0.05% NaN₃ in a final sample volume of 400 μL. […] After 30 minutes, red blood cells (RBC) were lysed with RBC lysis buffer, followed by Zombie UV viability staining. Then, cells were washed with FACS buffer (PBS containing 1% FBS, 2 mM EDTA, and 0.05% NaN₃) and resuspended in FACS buffer containing 10% FBS and 10% FcX block. Then, the antibody phenotyping cocktail (Table 8a) was added and incubated at room temperature for 30 minutes in the dark. Cells were washed with FACS buffer and resuspended in FACS buffer data acquisition using a FACSymphony™ Cytometer (BD BioSciences). Analysis was performed using FlowJo software. Populations were identified according to gating parameters as described in Table 8b.

[11] = target: T3, human CD163 expressed on cells …; test: flow cytometry on whole blood, nonclassical monocytes, APC-labeled antibody
Method: as §3

[12] = target: T3, human CD163 expressed on cells …; test: flow cytometry on whole blood, DCs, APC-labeled antibody
Method: as §3

[13] = target: T3, human CD163 expressed on cells …; test: cell-based or functional assay; remark: listed apart in the source
[14] = target: T3, human CD163 expressed on cells …; test: flow cytometry on whole blood, classical monocytes, APC-labeled antibody
Method: as §3

[15] = target: T3, human CD163 expressed on cells …; test: cell-based or functional assay; remark: listed apart in the source

T3 sequence (Q86VB7 other isoform, or with tags, fused parts or gaps limits assumed): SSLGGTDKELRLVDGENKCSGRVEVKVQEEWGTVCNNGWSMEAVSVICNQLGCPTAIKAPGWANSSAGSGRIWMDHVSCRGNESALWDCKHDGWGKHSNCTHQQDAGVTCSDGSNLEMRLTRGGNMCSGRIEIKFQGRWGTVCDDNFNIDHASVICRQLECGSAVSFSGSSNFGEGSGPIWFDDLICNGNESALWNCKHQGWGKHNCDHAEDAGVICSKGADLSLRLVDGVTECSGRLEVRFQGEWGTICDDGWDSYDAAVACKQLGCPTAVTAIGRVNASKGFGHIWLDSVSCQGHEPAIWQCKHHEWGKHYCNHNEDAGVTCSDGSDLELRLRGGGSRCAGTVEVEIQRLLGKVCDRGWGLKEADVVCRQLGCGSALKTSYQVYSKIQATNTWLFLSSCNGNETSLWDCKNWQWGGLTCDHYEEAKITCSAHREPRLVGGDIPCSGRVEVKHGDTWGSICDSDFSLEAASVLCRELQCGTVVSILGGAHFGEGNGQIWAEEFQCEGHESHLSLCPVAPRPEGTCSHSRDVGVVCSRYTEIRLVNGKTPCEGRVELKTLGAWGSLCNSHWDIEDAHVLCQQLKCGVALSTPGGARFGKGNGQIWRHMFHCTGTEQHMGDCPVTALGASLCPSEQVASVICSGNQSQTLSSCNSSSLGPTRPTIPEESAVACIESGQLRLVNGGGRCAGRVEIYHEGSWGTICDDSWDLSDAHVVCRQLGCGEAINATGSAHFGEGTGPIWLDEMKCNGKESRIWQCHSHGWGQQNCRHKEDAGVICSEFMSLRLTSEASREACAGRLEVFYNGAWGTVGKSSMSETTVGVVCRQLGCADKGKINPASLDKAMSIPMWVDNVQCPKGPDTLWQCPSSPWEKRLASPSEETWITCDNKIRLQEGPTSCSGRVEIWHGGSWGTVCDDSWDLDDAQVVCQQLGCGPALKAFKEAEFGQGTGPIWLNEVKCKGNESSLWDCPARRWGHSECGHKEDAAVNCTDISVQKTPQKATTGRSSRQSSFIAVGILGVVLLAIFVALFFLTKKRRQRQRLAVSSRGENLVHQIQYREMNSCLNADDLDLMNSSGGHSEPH
T2 sequence (Q86VB7 42-1050 limits assumed): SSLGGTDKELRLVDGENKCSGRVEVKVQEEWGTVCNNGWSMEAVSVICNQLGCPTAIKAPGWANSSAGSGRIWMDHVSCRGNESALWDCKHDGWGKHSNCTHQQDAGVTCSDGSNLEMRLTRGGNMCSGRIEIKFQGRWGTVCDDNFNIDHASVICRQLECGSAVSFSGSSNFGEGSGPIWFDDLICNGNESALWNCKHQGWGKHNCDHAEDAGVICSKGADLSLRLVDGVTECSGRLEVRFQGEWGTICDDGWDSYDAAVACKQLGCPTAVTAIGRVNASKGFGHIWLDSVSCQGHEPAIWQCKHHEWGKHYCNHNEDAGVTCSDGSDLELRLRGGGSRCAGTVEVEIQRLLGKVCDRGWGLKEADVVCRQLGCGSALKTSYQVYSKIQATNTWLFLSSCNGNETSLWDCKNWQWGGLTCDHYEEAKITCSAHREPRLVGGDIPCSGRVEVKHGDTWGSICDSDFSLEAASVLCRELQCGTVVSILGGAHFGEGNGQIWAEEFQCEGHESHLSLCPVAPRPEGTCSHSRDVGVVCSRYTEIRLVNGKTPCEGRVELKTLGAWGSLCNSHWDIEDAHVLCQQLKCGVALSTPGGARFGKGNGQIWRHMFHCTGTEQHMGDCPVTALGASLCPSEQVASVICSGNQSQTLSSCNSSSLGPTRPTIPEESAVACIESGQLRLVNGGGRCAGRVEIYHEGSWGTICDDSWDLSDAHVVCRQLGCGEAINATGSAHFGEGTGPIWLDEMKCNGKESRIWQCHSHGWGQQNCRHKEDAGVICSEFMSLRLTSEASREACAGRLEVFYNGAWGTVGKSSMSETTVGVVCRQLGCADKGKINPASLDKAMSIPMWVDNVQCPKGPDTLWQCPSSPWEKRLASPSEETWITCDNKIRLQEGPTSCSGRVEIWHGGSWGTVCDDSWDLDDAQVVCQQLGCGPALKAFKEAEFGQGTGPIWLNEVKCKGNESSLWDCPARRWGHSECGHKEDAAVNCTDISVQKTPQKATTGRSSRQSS
T1 sequence (Q86VB7 46-1050 limits assumed): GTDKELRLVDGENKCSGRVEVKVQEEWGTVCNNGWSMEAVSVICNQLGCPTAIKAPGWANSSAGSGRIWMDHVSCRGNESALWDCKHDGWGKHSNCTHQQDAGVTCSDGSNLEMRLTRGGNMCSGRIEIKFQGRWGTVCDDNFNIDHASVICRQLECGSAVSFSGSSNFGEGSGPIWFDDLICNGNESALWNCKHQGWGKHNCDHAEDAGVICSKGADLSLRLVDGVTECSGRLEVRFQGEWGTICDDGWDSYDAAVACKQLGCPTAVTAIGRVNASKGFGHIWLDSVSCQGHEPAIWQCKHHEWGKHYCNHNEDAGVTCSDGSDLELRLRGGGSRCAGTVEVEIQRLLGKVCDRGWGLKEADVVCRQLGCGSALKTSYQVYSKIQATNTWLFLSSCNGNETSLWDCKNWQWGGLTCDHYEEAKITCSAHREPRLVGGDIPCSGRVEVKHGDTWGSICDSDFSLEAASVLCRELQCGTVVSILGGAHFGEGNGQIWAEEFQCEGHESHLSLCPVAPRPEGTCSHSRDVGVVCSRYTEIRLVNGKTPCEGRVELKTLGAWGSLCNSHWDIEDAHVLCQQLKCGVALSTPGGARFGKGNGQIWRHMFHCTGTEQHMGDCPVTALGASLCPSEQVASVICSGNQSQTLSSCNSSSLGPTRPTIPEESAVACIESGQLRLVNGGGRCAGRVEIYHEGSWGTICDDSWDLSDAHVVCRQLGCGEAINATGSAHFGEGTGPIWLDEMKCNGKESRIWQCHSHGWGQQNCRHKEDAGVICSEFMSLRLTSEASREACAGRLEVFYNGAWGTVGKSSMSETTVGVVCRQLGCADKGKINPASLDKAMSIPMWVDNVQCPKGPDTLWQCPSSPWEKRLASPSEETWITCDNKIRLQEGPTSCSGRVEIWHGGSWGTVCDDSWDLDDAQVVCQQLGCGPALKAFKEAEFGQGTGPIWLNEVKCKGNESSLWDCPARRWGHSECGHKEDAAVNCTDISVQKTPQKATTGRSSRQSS

B1: Variant 4 (V4) (antibody, V domains shown)
VH: EVQLVESGGGVVQPGRSLRLSCAASGFTFSSYVMHWVRQAPGKGLEWVAVISEDGSNKYNADSVKGRFTISRDNSKNTLYLQMNSLRAEDTAVYYCARENVRPYYDFWSGYSSEYYYYGLDVWGQGTTVTVSS
VL: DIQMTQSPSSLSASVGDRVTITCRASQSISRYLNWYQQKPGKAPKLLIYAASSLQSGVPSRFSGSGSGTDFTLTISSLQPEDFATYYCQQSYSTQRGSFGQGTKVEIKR
notes: also called clone 4
fold stronger binding than AB101 parental antibody (EC50) [1]: 27 to 45 fold
Kd [2]: 0.176 nM
koff [2]: 0.000393 s⁻¹
kon [2]: 2.23e+06 M⁻¹ s⁻¹
fold affinity enhancement compared to AB101 parental Ab [3]: ~3760 fold
EC50 [4]: 3.05 nM
Kd [5]: 0.824 nM
koff [5]: 0.000874 s⁻¹
kon [5]: 1.06e+06 M⁻¹ s⁻¹
EC50 (read off the curve) [6]: ~3 pM
Affinity enhancement compared to parental Ab [7]: 3760 fold

B5: Variant 2 (V2) (antibody, V domains shown)
VH: B1 VH with Y32E, V33T, N60H, S112N, L120M
VL: DIQMTQSPSSLSASVGDRVTITCRASQSISRYLNWYQQKPGKAPKLLIYAASSLQNGVPSRFSGSGSGTDFTLTISSLQPEDFATYYCQQSYSTTRGSFGQGTKVEIKR
EC50 [4]: 2.23 nM
Kd [5]: 0.991 nM
koff [5]: 0.00087 s⁻¹
kon [5]: 878000 M⁻¹ s⁻¹
EC50 (read off the curve) [6]: ~2 pM

B6: Variant 1 (V1) (antibody, V domains shown)
VH: EVQLVESGGGVVQPGRSLRLSCAASGFTFSSYDMHWVRQAPGKGLEWVAVISEDGSNKYNADSVKGRFTISRDNSKNTLYLQMNSLRAEDTAVYYCARENVRPYYDFWSGYSSEYYYYGLDVWGQGTTVTVS
VL: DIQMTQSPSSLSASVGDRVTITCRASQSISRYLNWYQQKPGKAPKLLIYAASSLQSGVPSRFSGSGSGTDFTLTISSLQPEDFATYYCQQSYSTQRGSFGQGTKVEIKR
notes: The printed VH ends in TVS, one S shorter than the other variants
fold stronger binding than AB101 parental antibody (EC50) [1]: 27 to 45 fold
EC50 [4]: 1.87 nM
Kd [5]: 1.25 nM
koff [5]: 0.00112 s⁻¹
kon [5]: 895000 M⁻¹ s⁻¹
EC50 (read off the curve) [6]: ~2 pM

Further lines, results first:

EC50 [4]: 2.83 nM
Kd [5]: 1.03 nM
koff [5]: 0.000978 s⁻¹
kon [5]: 951000 M⁻¹ s⁻¹
EC50 (read off the curve) [6]: ~3 pM
B2: Variant 5 (V5) (antibody, V domains shown)
VH: B1 VH with V33D, S109R, S112N
VL: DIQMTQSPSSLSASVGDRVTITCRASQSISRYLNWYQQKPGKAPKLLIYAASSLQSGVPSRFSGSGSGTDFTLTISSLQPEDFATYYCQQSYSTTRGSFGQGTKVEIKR

EC50 [4]: 2.68 nM
Kd [5]: 0.964 nM
koff [5]: 0.000887 s⁻¹
kon [5]: 921000 M⁻¹ s⁻¹
EC50 (read off the curve) [6]: ~3 pM
B3: Variant 6 (V6) (antibody, V domains shown)
VH: B1 VH with Y32E, V33T
VL: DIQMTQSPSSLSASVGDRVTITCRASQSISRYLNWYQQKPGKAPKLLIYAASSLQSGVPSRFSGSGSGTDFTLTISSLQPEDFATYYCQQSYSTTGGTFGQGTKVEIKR

potency against AB101 in relieving M2c-mediated suppression of IFNγ release [8]: > 10 fold
potency against parental AB101 in relieving M2c-mediated suppression of CD8+ T cell proliferation [8]: ~40 fold
potency against parental AB101 in relieving M2c-mediated suppression of perforin secretion [8]: ~100 fold
EC50 of antibody-elicited IFNγ secretion (M2c/T cell blast coculture) [9]: 0.47 nM
fold increase of geometric MFI compared to AB101 [10]: 9.2 fold
fold increase of geometric MFI compared to AB101 [11]: 3 fold
EC50 [4]: 2.79 nM
Kd [5]: 0.937 nM
koff [5]: 0.000925 s⁻¹
kon [5]: 987000 M⁻¹ s⁻¹
EC50 (read off the curve) [6]: ~3 pM
fold increase of geometric MFI compared to AB101 [12]: 4.3 fold
EC50 of antibody-elicited perforin secretion (M2c/CD8+ T cell coculture) [13]: 0.33 nM
fold increase of geometric MFI compared to AB101 [14]: 9.8 fold
EC50 of antibody-elicited T cell proliferation (M2c/CD8+ T cell coculture) [15]: 0.27 nM
B4: Variant 3 (V3) (antibody, human IgG1, V domains shown)
VH: B1 VH with N60E, S109R, S112N
VL: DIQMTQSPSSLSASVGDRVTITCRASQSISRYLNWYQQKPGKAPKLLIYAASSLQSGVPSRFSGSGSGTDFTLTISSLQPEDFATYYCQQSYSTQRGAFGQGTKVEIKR
